According to patent US20100035814A1 (Novo Nordisk, published 2010):
Where a chain is given by its changes, count along the chain named. In names and notes the source's numbering stands. Where two headings read alike, the source gives them in different places.

Assays:
[1] = biological target: T1, hPRLR on stably transfected BaF/3 cells (human, UniProt P16471 25-622); assay: cell-based or functional assay
T1 sequence (looked up): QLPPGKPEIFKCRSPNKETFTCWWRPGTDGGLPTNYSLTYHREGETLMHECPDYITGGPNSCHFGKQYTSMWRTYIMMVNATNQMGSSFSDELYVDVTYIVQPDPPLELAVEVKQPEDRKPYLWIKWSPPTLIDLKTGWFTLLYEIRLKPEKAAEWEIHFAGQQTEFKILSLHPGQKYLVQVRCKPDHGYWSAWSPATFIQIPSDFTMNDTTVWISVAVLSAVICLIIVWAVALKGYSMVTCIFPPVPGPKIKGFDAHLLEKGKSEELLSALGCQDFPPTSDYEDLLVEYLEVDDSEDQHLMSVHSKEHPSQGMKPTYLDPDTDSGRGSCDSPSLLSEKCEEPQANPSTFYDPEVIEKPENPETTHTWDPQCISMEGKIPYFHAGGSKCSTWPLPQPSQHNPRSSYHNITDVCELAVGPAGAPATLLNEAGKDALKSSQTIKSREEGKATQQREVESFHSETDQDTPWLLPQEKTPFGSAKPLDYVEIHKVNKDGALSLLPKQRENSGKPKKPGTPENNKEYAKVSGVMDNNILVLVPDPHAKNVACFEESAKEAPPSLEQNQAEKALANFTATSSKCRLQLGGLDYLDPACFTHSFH

[2] = biological target: T2, soluble form of the PRL receptor (UniProt P16471 25-234, limits assumed); assay: SPR (Biacore 3000), soluble PRL receptor amine-coupled to CM5 chip, prolactin molecule injected at 500 nM
T2 construct: extracellular domain; It gives no residues, tag or species; also called prolactin receptor; immobilized receptor
T2 sequence (looked up): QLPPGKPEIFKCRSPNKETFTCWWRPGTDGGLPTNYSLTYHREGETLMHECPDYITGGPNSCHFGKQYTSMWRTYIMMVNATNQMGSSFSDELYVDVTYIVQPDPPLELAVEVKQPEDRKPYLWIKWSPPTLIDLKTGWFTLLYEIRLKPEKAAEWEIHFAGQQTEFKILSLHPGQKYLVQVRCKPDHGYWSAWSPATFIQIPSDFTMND
Description: The soluble form of the PRL receptor (25 μg/ml in 10 mM sodium acetate, pH 3.0) was injected into a Biacore 3000 instrument at a flow rate of 5 μl/min and coupled to a CM5 sensor chip by amine coupling chemistry. […] Data evaluation was performed in BiaEvaluation 4.1. Regeneration was accomplished with 4.5 M MgCl₂ between runs.
Using the assay as described in Example 8, the binding of N-terminally pegylated versions of the prolactin antagonist PRL(12-199) Q12S G129R to the prolactin receptor was determined.

[3] = biological target: T1, hPRLR on stably transfected BaF/3 cells; assay: cell-based or functional assay; remark: listed apart in the source

B1: Ser PRL S33A Q73L G129R K190R (ligand)
chain: SLPICPGGAARCQVTLRDLFDRAVVLSHYIHNLASEMFSEFDKRYTHGRGFITKAINSCHTSSLATPEDKEQALQMNQKDFLSLIVSILRSWNEPLYHLVTEVRGMQEAPEAILSKAVEIEEQTKRLLERMELIVSQVHPETKENEIYPVWSGLPSLQMADEESRLSAYYNLLHCLRRDSHKIDNYLKLLRCRIIHNNNC
EC50 of PRL in the presence of 1 µM Ser PRL S33A Q73L G129R K190R, proliferation of BaF/3 cells stably transfected with hPRLR [1]: 531 nM

B2: N^alpha1-(3-(20 kDa-mPEGyl)propyl) Ser PRL S33A Q73L G129R K190R (ligand)
chain: B1 chain
modifications: N-terminal alpha-amino group (N^alpha1, of the added serine) alkylated with 3-(20 kDa mPEGyl)propyl by reductive amination
EC50 of PRL in the presence of 1 µM Ser PRL S33A Q73L G129R K190R PEG20k, proliferation of BaF/3 cells stably transfected with hPRLR [1]: 19 nM

B3: PRL(12-199) Q12S G129R (ligand)
chain: SVTLRDLFDRAVVLSHYIHNLSSEMFSEFDKRYTHGRGFITKAINSCHTSSLATPEDKEQAQQMNQKDFLSLIVSILRSWNEPLYHLVTEVRGMQEAPEAILSKAVEIEEQTKRLLERMELIVSQVHPETKENEIYPVWSGLPSLQMADEESRLSAYYNLLHCLRRDSHKIDNYLKLLKCRIIHNNNC
EC50 of PRL in the presence of 1 µM PRL(12-199) Q12S G129R, proliferation of BaF/3 cells stably transfected with hPRLR [1]: 40 nM

B4: N^alpha,13((4-(2-Methyl-4-(10 kDa mPEGyloxy)butanoylamino)butoxy)imino)acetyl G129R-PRL(13-199) (E2) (ligand)
chain: VTLRDLFDRAVVLSHYIHNLSSEMFSEFDKRYTHGRGFITKAINSCHTSSLATPEDKEQAQQMNQKDFLSLIVSILRSWNEPLYHLVTEVRGMQEAPEAILSKAVEIEEQTKRLLERMELIVSQVHPETKENEIYPVWSGLPSLQMADEESRLSAYYNLLHCLRRDSHKIDNYLKLLKCRIIHNNNC
modifications: alpha-amino group of residue 13 carries ((4-(2-methyl-4-(10 kDa mPEGyloxy)butanoylamino)butoxy)imino)acetyl (oxime formed on the periodate-oxidised N-terminal serine of N^alpha,13-seryl G129R-PRL(13-199))
notes: also called N-terminally pegylated PRL(12-199) Q12S G129R (10 kDa PEG)
Kd [2]: 55 nM

B5: N^alpha,13((4-(3-(5 kDa mPEGyloxy)propionylamino)butoxy)imino)acetyl G129R-PRL(13-199) (E4) (ligand)
chain: B4 chain
modifications: alpha-amino group of residue 13 carries ((4-(3-(5 kDa mPEGyloxy)propionylamino)butoxy)imino)acetyl (oxime formed on the periodate-oxidised N-terminal serine of N^alpha,13-seryl G129R-PRL(13-199))
notes: also called N-terminally pegylated PRL(12-199) Q12S G129R (5 kDa PEG)
Kd [2]: 42 nM

B6: N^alpha,13((4-(4-(20 kDa mPEGyloxy)butanoylamino)butoxy)imino)acetyl G129R-PRL(13-199) (E3) (ligand)
chain: B4 chain
modifications: alpha-amino group of residue 13 carries ((4-(4-(20 kDa mPEGyloxy)butanoylamino)butoxy)imino)acetyl (oxime formed on the periodate-oxidised N-terminal serine of N^alpha,13-seryl G129R-PRL(13-199))
notes: also called N-terminally pegylated PRL(12-199) Q12S G129R (20 kDa PEG)
Kd [2]: 70 nM

B7: PRL wildtype (ligand)
chain: LPICPGGAARCQVTLRDLFDRAVVLSHYIHNLSSEMFSEFDKRYTHGRGFITKAINSCHTSSLATPEDKEQAQQMNQKDFLSLIVSILRSWNEPLYHLVTEVRGMQEAPEAILSKAVEIEEQTKRLLEGMELIVSQVHPETKENEIYPVWSGLPSLQMADEESRLSAYYNLLHCLRRDSHKIDNYLKLLKCRIIHNNNC
notes: also called wtPRL; human prolactin
Kd [2]: 32 nM | EC50, proliferation (AlamarBlue) of BaF/3 cells stably transfected with hPRLR [1]: 0.15 nM | EC50, proliferation (AlamarBlue) of BaF/3 cells stably transfected with hPRLR [3]: 0.15 nM

B8: PRL S61A G129R (ligand)
chain: B7 chain with S61A, G129R
EC50 of PRL in the presence of 1 µM PRL S61A G129R, proliferation of BaF/3 cells stably transfected with hPRLR [3]: 116 nM

B9: N^alpha1-(3-(20 kDa-mPEGyl)propyl)PRL S61 G129R ("PRL S61A G129R PEG20k") (ligand)
chain: B7 chain with S61A, G129R
modifications: N-terminal alpha-amino group (N^alpha1) alkylated with 3-(20 kDa mPEGyl)propyl by reductive amination
Kd [2]: 71 nM | EC50 of PRL in the presence of 1 µM PRL S61A G129R PEG20k, proliferation of BaF/3 cells stably transfected with hPRLR [3]: 4.6 nM
